Data on 2 substances can be found in patent US20070166286.

Holding throughout (assay): cell_activity
One data set deals with FLP recombinase. To be noted: substrate plasmid ad2879, 293 cells; 4.9 in Table 2 with vector control.
A further data set relates to FLPe (thermostable FLP). Conditions: substrate plasmid ad2879, 293 cells.
The subject of data set [1] is Cre-LBD (bacteriophage P1). To be noted: type B provirus pk8-ad4332, +tamoxifen; 4.1 without.
In data set [2] the test system is Cre recombinase (bacteriophage P1). To be noted: Ad2HCRGFP/EBV in HepG2, 72 h post infection, moi 1000.
In data set [3] the test system is LBD-Cre-LBD (bacteriophage P1). To be noted: type B provirus pk8-ad4626, +tamoxifen; 0.05 without.

For FRT site, the activity (mean GFP intensity) in the data set with FLP recombinase came out at 0.01; with FLPe (thermostable FLP) it was 2.39.
Take loxP site: the activity (arbitrary GFP intensity) was 6 in data set [1] and 4.2 in data set [3]. For the same substance, in data set [2], the activity (% genomes circularized (or more)) is 95.
